B1: Pistol ribozyme (parent)
chain: GGGUCGUUGUUCCAUAAUCGCGUGGAUAUGGCACGCAAGUUUCUACCGGGCACCGUAAAUGUCCGACUGGAGCCGUUCGGGCGGCUAUAAACAGACCUCAGGCCCGAAGCGUGGCGGCACCUGCCGCCGGUGGUAAAAAAGAUCGGAAGAGCACACGUCU

Variants of: B1
Assay: aptazyme ON/OFF ratio, guanine; higher = stronger switching; co-transcriptional cleavage with and without guanine

Row | Variant | aptazyme ON/OFF ratio
1 | U7A U8C G9C U10C U11G C12G C13U | 1.08
2 | U7A U8C G9C U10C U11G C12G C13A | 1.12
3 | U7A U8C G9C U10C U11G C12G C13G | 1.08
4 | U7A U8C G9C U10G U11C | 1.1
5 | U7A U8C G9C U10G U11A | 1.04
6 | U7A U8C G9C U10G C12U C13A | 1.06
7 | U7A U8C G9C U10G C12U C13U | 1.26
8 | U7A U8C G9C U10G C12U C13G | 1.11
9 | U7A U8C G9C U10A U11A C13A | 1.07
10 | U7A U8C G9C U10A U11A C13U | 1.13
11 | U7A U8C G9C U10A U11A C13G | 1.06
12 | U7A U8C G9C C13G | 1.06
13 | U7A U8C G9C C13U | 1.07
14 | U7A U8C G9C U10G U11A C12U C13G | 1.01
15 | U7A U8C G9C U10G U11A C12U C13U | 1.03
16 | U7A U8C G9C U10G U11A C12U C13A | 1.07
17 | U7A U8C G9C U10C U11C C13A | 1.03
18 | U7A U8C G9C U10C U11C C13U | 0.981
19 | U7A U8C G9C U10C U11C C13G | 1.05
20 | U7A U8C G9C U10C U11G C12A C13G | 1.07
21 | U7A U8C G9C U10C U11G C12A C13A | 1.18
22 | U7A U8C G9C U10C U11G C12A C13U | 1.11
23 | U7A U8C G9C U10G U11C C12A | 1.1
24 | U7A U8C G9C U10C U11C C12G C13U | 1.07

Row | Variant | aptazyme ON/OFF ratio
25 | U7A U8C G9C U10C U11C C12G C13G | 1.09
26 | U7A U8C G9C U10C U11C C12G C13A | 1.02
27 | U7A U8C G9C U10C U11A C12U | 1.03
28 | U7A U8C G9C U10C U11A C12A | 1.07
29 | U7A U8C G9C U10C U11A C12G | 1.02
30 | U7A U8C G9C U10A U11C C12U | 1.13
31 | U7A U8C G9C U10A U11C C12G | 1.26
32 | U7A U8C G9C U10A U11C C12A | 1.1
33 | U7A U8C G9C U10A U11C | 1.08
34 | U7A U8C G9C U10A U11G | 1.11
35 | U7A U8C G9C U10A U11A | 1.07
36 | U7A U8C G9C U10G U11A C12U | 1.04
37 | U7A U8C G9C U10G U11A C12A | 1.26
38 | U7A U8C G9C U10G U11A C12G | 1.11
39 | U7A U8C G9C U10A | 1.17
40 | U7A U8C G9C U10G | 1.01
41 | U7A U8C G9C U10C | 1.18
42 | U7A U8C G9C U10A U11G C12U | 1.19
43 | U7A U8C G9C U10A U11G C12G | 1.12
44 | U7A U8C G9C U10A U11G C12A | 1.04
45 | U7A U8C G9C U10C C13U | 1.06
46 | U7A U8C G9C U10C C13G | 1.07
47 | U7A U8C G9C U10C C13A | 1.06
48 | U7A U8C G9C U10G U11A C12G C13U | 1.08

Row | Variant | aptazyme ON/OFF ratio
49 | U7A U8C G9C U10G U11A C12G C13A | 1.02
50 | U7A U8C G9C U10G U11A C12G C13G | 1.17
51 | U7A U8C G9C U10G C12G | 1.12
52 | U7A U8C G9C U10G C12U | 1.02
53 | U7A U8C G9C U10G C12A | 1.07
54 | U7A U8C G9C U10A U11G C12A C13G | 1.12
55 | U7A U8C G9C U10A U11G C12A C13A | 1.11
56 | U7A U8C G9C U10A U11G C12A C13U | 1.11
57 | U7A U8C G9C U10C C12U C13A | 1.04
58 | U7A U8C G9C U10C C12U C13G | 1.06
59 | U7A U8C G9C U10C C12U C13U | 1.04
60 | U7A U8C G9C U10A U11C C12A C13A | 1.15
61 | U7A U8C G9C U10A U11C C12A C13U | 1.14
62 | U7A U8C G9C U10A U11C C12A C13G | 1.16
63 | U7A U8C G9C U10G U11A C13U | 1.02
64 | U7A U8C G9C U10G U11A C13A | 1.05
65 | U7A U8C G9C U10G U11A C13G | 1.1
66 | U7A U8C G9C U10A U11G C12G C13G | 1.13
67 | U7A U8C G9C U10A U11G C12G C13A | 1.08
68 | U7A U8C G9C U10A U11G C12G C13U | 1.14
69 | U7A U8C G9C U10C C12A | 1.03
70 | U7A U8C G9C U10C C12G | 1.03
71 | U7A U8C G9C U10C C12U | 1.04
72 | U7A U8C G9C U10C U11A C13G | 1.08

Row | Variant | aptazyme ON/OFF ratio
73 | U7A U8C G9C U10C U11A C13U | 1.04
74 | U7A U8C G9C U10C U11A C13A | 1.07
75 | U7A U8C G9C U10C U11A C12A C13A | 1.01
76 | U7A U8C G9C U10C U11A C12A C13U | 1.03
77 | U7A U8C G9C U10C U11A C12A C13G | 1.06
78 | U7A U8C G9C U10A U11C C13G | 1.46
79 | U7A U8C G9C U10A U11C C13U | 1.12
80 | U7A U8C G9C U10A U11C C13A | 1.41
81 | U7A U8C G9C U10A U11A C12U C13U | 1.05
82 | U7A U8C G9C U10A U11A C12U C13A | 1.09
83 | U7A U8C G9C U10A U11A C12U C13G | 1.08
84 | U7A U8C G9C U10A C12U C13A | 1.05
85 | U7A U8C G9C U10A C12U C13G | 1.07
86 | U7A U8C G9C U10A C12U C13U | 1.07
87 | U7A U8C G9C U10A C13U | 1.06
88 | U7A U8C G9C U10A C13A | 1.09
89 | U7A U8C G9C U10A C13G | 1.07
90 | U7A U8C G9C U10A C12G | 1.21
91 | U7A U8C G9C U10A C12U | 1.11
92 | U7A U8C G9C U10A C12A | 1.09
93 | U7A U8C G9C U10C U11G C13G | 1.16
94 | U7A U8C G9C U10C U11G C13A | 1.07
95 | U7A U8C G9C U10C U11G C13U | 1.04
96 | U7A U8C G9C U10C U11C C12A C13A | 0.998

Row | Variant | aptazyme ON/OFF ratio
97 | U7A U8C G9C U10C U11C C12A C13U | 0.998
98 | U7A U8C G9C U10C U11C C12A C13G | 1.03
99 | U7A U8C G9C U10C C12A C13U | 0.999
100 | U7A U8C G9C U10C C12A C13G | 1.13
101 | U7A U8C G9C U10C C12A C13A | 1.03
102 | U7A U8C G9C U10A C12G C13G | 1.14
103 | U7A U8C G9C U10A C12G C13A | 1.1
104 | U7A U8C G9C U10A C12G C13U | 1.17
105 | U7A U8C G9C U10C C12G C13G | 1.12
106 | U7A U8C G9C U10C C12G C13A | 1.04
107 | U7A U8C G9C U10C C12G C13U | 1.08
108 | U7A U8C G9C U10A U11G C13U | 1.09
109 | U7A U8C G9C U10A U11G C13A | 1.1
110 | U7A U8C G9C U10A U11G C13G | 1.12
111 | U7A U8C G9C U10G C12G C13A | 1.05
112 | U7A U8C G9C U10G C12G C13G | 1.11
113 | U7A U8C G9C U10G C12G C13U | 1.13
114 | U7A U8C G9C U10G C13G | 1.09
115 | U7A U8C G9C U10G C13A | 1.1
116 | U7A U8C G9C U10G C13U | 1.14
117 | U7A U8C G9C U10G U11A C12A C13G | 1.16
118 | U7A U8C G9C U10G U11A C12A C13A | 1.03
119 | U7A U8C G9C U10G U11A C12A C13U | 1.06
120 | U7A U8C G9C U10A U11G C12U C13U | 1.14

Row | Variant | aptazyme ON/OFF ratio
121 | U7A U8C G9C U10A U11G C12U C13A | 1.13
122 | U7A U8C G9C U10A U11G C12U C13G | 1.14
123 | U7A U8C G9C U10C U11A C12U C13G | 1.01
124 | U7A U8C G9C U10C U11A C12U C13A | 1.04
125 | U7A U8C G9C U10C U11A C12U C13U | 1.02
126 | U7A U8C G9C U10G C12A C13U | 1.07
127 | U7A U8C G9C U10G C12A C13G | 1.12
128 | U7A U8C G9C U10G C12A C13A | 1.06
129 | U7A U8C G9C U10G U11C C12A C13U | 1.09
130 | U7A U8C G9C U10G U11C C12A C13A | 1.05
131 | U7A U8C G9C U10G U11C C12A C13G | 1.08
132 | U7A U8C G9C U10C U11G C12U C13G | 1.11
133 | U7A U8C G9C U10C U11G C12U C13A | 1.09
134 | U7A U8C G9C U10C U11G C12U C13U | 1.09
135 | U7A U8C G9C U10A U11A C12U | 1.07
136 | U7A U8C G9C U10A U11A C12A | 1.09
137 | U7A U8C G9C U10A U11A C12G | 1.13
138 | U7A U8C G9C U10A U11C C12G C13G | 1.27
139 | U7A U8C G9C U10A U11C C12G C13A | 1.29
140 | U7A U8C G9C U10A U11C C12G C13U | 1.27
141 | U7A U8C G9C U10C U11A C12G C13G | 1.08
142 | U7A U8C G9C U10C U11A C12G C13A | 1.03
143 | U7A U8C G9C U10C U11A C12G C13U | 1.1
144 | U7A U8C G9C U10A U11C C12U C13A | 1.05

Row | Variant | aptazyme ON/OFF ratio
145 | U7A U8C G9C U10A U11C C12U C13U | 1.22
146 | U7A U8C G9C U10A U11C C12U C13G | 1.26
147 | U7A U8C G9C U10C U11G C12G | 1.08
148 | U7A U8C G9C U10C U11G C12U | 1.06
149 | U7A U8C G9C U10C U11G C12A | 1.13
150 | U7A U8C G9C U10A U11A C12A C13G | 1.08
151 | U7A U8C G9C U10A U11A C12A C13U | 1.05
152 | U7A U8C G9C U10A U11A C12A C13A | 1.05
153 | U7A U8C G9C U10C U11C C12U | 0.94
154 | U7A U8C G9C U10C U11C C12A | 1.05
155 | U7A U8C G9C U10C U11C C12G | 1.03
156 | U7A U8C G9C U10C U11A | 1.03
157 | U7A U8C G9C U10C U11C | 0.989
158 | U7A U8C G9C U10C U11G | 1.03
159 | U7A U8C G9C U10A U11A C12G C13U | 1.07
160 | U7A U8C G9C U10A U11A C12G C13G | 1.08
161 | U7A U8C G9C U10A U11A C12G C13A | 1.05
162 | U7A U8C G9C U10A C12A C13A | 1
163 | U7A U8C G9C U10A C12A C13U | 1.09
164 | U7A U8C G9C U10A C12A C13G | 1.08
165 | U7A U8C G9C U10C U11C C12U C13A | 1.02
166 | U7A U8C G9C U10C U11C C12U C13U | 0.988
167 | U7A U8C G9C U10C U11C C12U C13G | 1.02

Source: the RNAGym collection of RNA variant scans (doi:10.1021/acssynbio.7b00057)
